Measurements reported in paper PMC8842248 (2022).
*: point of attachment. Farnesyl = CC(C)=CCC/C(C)=C/CC/C(C)=C/C*

What was measured:
[1] = molecular target: T1, PDE6D (phosphodiesterase 6 delta), wild type, polyhistidine tag removed (UniProt O43924 1-150); experiment: FP; + compound-1, replicate 3
[2] = molecular target: T1, PDE6D (phosphodiesterase 6 delta), wild …; experiment: FP; + compound-1, replicate 2
[3] = molecular target: T1, PDE6D (phosphodiesterase 6 delta), wild …; experiment: FP; average of 3 replicates
[4] = molecular target: T1, PDE6D (phosphodiesterase 6 delta), wild …; experiment: FP; in the presence of 500 uM Compound-2
[5] = molecular target: T1, PDE6D (phosphodiesterase 6 delta), wild …; experiment: FP; replicate 3
[6] = molecular target: T1, PDE6D (phosphodiesterase 6 delta), wild …; experiment: FP; + compound-1, replicate 1
[7] = molecular target: T1, PDE6D (phosphodiesterase 6 delta), wild …; experiment: FP; + compound-1, average of 3 replicates

Question: Which Kd [1] does the source give for {FAM}-KKKKKKSKTKC(Farnesyl)-OMe [fluorescein-labeled KRAS HVR peptide, FAM-KKKKKKSKTKC(OMe)-Far] here?
Answer: 1.2 µM

Question: And the Kd [2]?
Answer: 1.7 µM

Question: And the Kd [3]?
Answer: 1.4 µM

Question: And the Kd [4]?
Answer: 55.2 µM

Question: What about the Kd [5] of the same binder?
Answer: 1.1 µM

Question: What about the Kd [6] of the same binder?
Answer: 1 µM

Question: And the Kd [7]?
Answer: 1.3 µM
